Experiment [1] concerns the target T1, murine FAP avi his, biotinylated (murine, UniProt P97321 27-761, biotin on the avi-tag).
T1 construct: also called muFAP; mu FAP
Kind of experiment: SPR, bacterial supernatant. (In general: SPR reads the build-up and loss of mass on a sensor chip optically.)
Procedure: (§1) Clones that were identified in the “mix-and-read assay” performed with the Mirrorball instrument were further analyzed by Surface Plasmon Resonance (SPR). The off-rate of selected aVH clones was measured using a ProteOn XPR36 instrument (Biorad) at 25° C. with biotinylated human and murine FAP antigen immobilized on NLC chips by neutravidin capture. Immobilization of recombinant antigens (ligand): Antigens were diluted with PBST (10 mM phosphate, 150 mM sodium chloride pH 7.4, 0.005% Tween 20) to 10 μg/ml, then injected at 30 μl/minute at varying contact times, to achieve immobilization levels of 400, 800 or 1600 response units (RU) in vertical orientation. Injection of analytes: Injection direction was changed to horizontal orientation and 5 individual aVH-containing supernatants that were diluted 1:3 with PBST were injected simultaneously at 60 μl/min along separate channels 1-5, with association times between 120 and 180s, and dissociation times of 600s. Diluted bacterial supernatant without aVH was injected along the sixth channel to provide an “in-line” blank for referencing. Dissociation rate constants (koff) were calculated using the “koff-rate” calculation in ProteOn Manager v3.1 software.

The target of experiment [2] is T2, human FAP avi his, biotinylated (human, UniProt Q12884 27-759, biotin on the avi-tag).
T2 construct: also called huFAP
The experiment in a line: SPR, bacterial supernatant.
Procedure: as §1

Experiment [3] concerns the target T3, MCSP antigen, amino acids 1553 to 2184 of matured MCSP with C-terminal avi-tag and His-tag, biotinylated (Homo sapiens (Human), UniProt Q6UVK1 1582-2213, limits assumed, biotin on the avi-tag).
T3 construct: also called recombinant MCSP
T3 sequence: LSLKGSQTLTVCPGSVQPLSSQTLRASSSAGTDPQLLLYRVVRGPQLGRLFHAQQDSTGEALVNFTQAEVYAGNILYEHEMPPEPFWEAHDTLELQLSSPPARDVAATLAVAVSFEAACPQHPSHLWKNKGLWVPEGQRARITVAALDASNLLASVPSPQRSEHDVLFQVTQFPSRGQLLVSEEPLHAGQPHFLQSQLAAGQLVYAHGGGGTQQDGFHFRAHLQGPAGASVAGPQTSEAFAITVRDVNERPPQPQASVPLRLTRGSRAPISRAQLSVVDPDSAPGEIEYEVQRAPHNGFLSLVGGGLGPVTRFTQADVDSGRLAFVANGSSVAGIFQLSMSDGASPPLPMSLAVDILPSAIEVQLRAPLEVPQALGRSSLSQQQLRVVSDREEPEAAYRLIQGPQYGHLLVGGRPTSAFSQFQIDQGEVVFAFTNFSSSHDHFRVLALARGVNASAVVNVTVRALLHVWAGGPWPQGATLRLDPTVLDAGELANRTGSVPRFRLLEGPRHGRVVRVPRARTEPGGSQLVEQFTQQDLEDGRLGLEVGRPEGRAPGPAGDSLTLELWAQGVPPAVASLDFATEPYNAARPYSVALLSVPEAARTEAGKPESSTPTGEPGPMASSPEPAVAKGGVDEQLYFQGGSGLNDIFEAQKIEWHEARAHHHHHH
Kind of experiment: SPR, MCSP immobilised.

The target in experiment [4] is T4, full-length human CEA with N-terminal SNAP tag on transfected HEK293 cells (human, UniProt P06731 35-685, SNAP tag labelled with terbium).
T4 construct: whole, on cells; also called hu CEA-SNAP; CEACAM5
T4 sequence (looked up): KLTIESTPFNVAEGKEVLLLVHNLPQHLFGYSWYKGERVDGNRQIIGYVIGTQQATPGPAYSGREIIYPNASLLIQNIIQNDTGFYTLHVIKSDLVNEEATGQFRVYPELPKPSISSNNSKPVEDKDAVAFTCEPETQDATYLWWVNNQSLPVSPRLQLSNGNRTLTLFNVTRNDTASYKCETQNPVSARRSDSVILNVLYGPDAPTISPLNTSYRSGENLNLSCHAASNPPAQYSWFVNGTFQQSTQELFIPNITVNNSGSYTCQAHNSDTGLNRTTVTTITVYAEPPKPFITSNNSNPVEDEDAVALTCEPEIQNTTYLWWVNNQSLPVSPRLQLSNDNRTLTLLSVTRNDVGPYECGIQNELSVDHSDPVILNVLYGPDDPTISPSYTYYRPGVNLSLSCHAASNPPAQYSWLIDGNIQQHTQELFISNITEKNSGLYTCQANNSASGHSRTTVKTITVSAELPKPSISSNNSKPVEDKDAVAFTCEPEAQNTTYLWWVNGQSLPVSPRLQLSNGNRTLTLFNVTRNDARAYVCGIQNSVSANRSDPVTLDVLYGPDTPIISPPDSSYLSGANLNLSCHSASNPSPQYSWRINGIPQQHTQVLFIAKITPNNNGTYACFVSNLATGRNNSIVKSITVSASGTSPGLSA
Kind of experiment: FRET (TagLite) on hu CEA-SNAP cells.
Procedure: Binding of a selected set of purified aVH binders to their epitope on CEA-expressing cells was determined by Fluorescence Resonance Energy Transfer (FRET) analysis. For this analysis, the DNA sequence encoding for the SNAP Tag (plasmid purchased from Cisbio) was amplified by PCR and ligated into an expression vector, containing the full length human CEA sequence. The resulting fusion protein was comprised of full-length CEA with an N-terminal SNAP tag. HEK293 cells were transfected with 10 μg DNA using Lipofectamine 2000 as transfection reagent. After an incubation time of 20 h, cells were washed with PBS and incubated for 1 h at 37° C. in LabMed buffer (Cisbio) containing 100 nM SNAP-Lumi4Tb (Cibsio), leading to specific labeling of the SNAP Tag. Subsequently, cells were washed 4 times with LabMed buffer to remove unbound dye. […] Cells were then stored frozen at −80° C. for up to 6 months. Binding was measured by adding CEA-specific aVH binders at a concentration ranging from 0.005 up to 100 nM to labeled cells (100 cells per well) followed by addition of d2-labeled anti-his tag antibody (Cisbio, final concentration was 200 nM per well) as acceptor molecule for the FRET. […] The ratio of acceptor to donor emission was calculated and the ratio of the background control (cells only incubated with anti-his tag antibody) subtracted. Curves were analysed in GraphPad Prism5 (FIG. 9) and KDs calculated (Table 26).

In experiment [5] the target is T5, hu(NA1)BA-avi-His, biotinylated (human, biotin on the avi-tag).
T5 construct: CEACAM5 domains N and A1 followed by two CEACAM1 Ig domains, avi-tag and his-tag; also called CEA antigen; chimera of CEACAM5 domains N and A1 on CEACAM1
T5 chain: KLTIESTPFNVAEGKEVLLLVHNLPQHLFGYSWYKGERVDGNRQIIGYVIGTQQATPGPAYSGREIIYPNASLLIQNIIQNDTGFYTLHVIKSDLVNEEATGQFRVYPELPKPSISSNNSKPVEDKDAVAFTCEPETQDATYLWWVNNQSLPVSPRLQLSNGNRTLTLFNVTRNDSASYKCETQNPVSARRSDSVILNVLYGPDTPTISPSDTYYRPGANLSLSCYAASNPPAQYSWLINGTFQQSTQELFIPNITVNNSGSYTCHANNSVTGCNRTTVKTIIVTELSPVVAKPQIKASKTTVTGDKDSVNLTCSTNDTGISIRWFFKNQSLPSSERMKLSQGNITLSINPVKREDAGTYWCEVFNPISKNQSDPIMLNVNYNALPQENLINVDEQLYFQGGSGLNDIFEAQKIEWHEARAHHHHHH
Kind of experiment: SPR, purified aVH.
Procedure: CEACAM1-avi-his was again used as a negative control Immobilization of recombinant antigens (ligand): Antigen was diluted with PBST (10 mM phosphate, 150 mM sodium chloride pH 7.4, 0.005% Tween 20) to 10 μg/ml, then injected at 30 μl/minute at varying contact times, to achieve immobilization levels of 200, 400 or 800 response units (RU) in vertical orientation. […] Buffer (PBST) was injected along the sixth channel to provide an “in-line” blank for referencing. Association rate constants (kₒₙ) and dissociation rate constants (koff) were calculated using a simple one-to-one Langmuir binding model in ProteOn Manager v3.1 software by simultaneously fitting the association and dissociation sensorgrams. The equilibrium dissociation constant (KD) was calculated as the ratio koff/kₒₙ.

Experiment [6] deals with T5, hu(NA1)BA-avi-His, biotinylated. Kind of experiment: SPR, bacterial supernatant.
Procedure: The off-rate of selected aVH clones was measured using a ProteOn XPR36 instrument (Biorad) at 25° C. with biotinylated hu(NA1)BA-avi-His immobilized on NLC chips by neutravidin capture. CEACAM1-avi-his was used as a negative control. Immobilization of recombinant antigens (ligand): Antigens were diluted with PBST (10 mM phosphate, 150 mM sodium chloride pH 7.4, 0.005% Tween 20) to 10 μg/ml, then injected at 30 μl/minute at varying contact times, to achieve immobilization levels of 400, 800 or 1600 response units (RU) in vertical orientation. Injection of analytes: Injection direction was changed to horizontal orientation and 5 individual aVH-containing supernatants that were diluted 1:3 with PBST were injected simultaneously at 60 μl/min along separate channels 1-5, with association times between 120 and 180s, and dissociation times of 800s. Diluted bacterial supernatant without aVH was injected along the sixth channel to provide an “in-line” blank for referencing. Dissociation rate constants (koff) were calculated using the “koff-rate” calculation in ProteOn Manager v3.1 software.
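For result in this document: SPR at 25 °C with biotinylated human or murine FAP captured via neutravidin, aVH-containing bacterial supernatants diluted 1:3 as analyte, 600 s dissociation, blank supernatant without aVH as reference.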

B1: anti-FAP aVH P034.001 (VHH)
VHH: EVQLVESGGGLVQPGGSLRLSCAASGFNIKDTCIGWVRRAPGKEEELVANICGSIGATRYADSVKGRFTISADTSKNTAYLQMNSLRAEDTAVYYCAKSGGHKGYRYWGQGTTVTVSS
With B1, the koff in experiment [1] turned out to be 0.0176 s⁻¹. Moreover, the binding result in experiment [2] is “no binding”.

B2: anti-FAP aVH P034.007 (VHH)
VHH: EVQLVESGGGLVQPGGSLRLSCAASGFNIKDTCIGWVRRAPGKEEELVANICGGDGHTRYADSVKGRFTISADTSKNTAYLQMNSLRAEDTAVYYCATSYTVYRYYYWGQGTTVTVSS
Take B2: the koff is 0.0106 s⁻¹ in experiment [1] and 0.00385 s⁻¹ in experiment [2].

B3: anti-FAP aVH P058.068 (VHH)
VHH: EVQLVESGGGLVQPGGSLRLSCAASGFNIKDTCIGWVRRAPGKEEELVANICQTHGYTRYADSVKGRFTISADTSKNTAYLQMNSLRAEDTAVYYCAYKGGGRYYDYWGQGTTVTVSS
For the molecule B3, in experiment [1], the binding result is given as “no binding”. In experiment [2], the koff came out at 0.00316 s⁻¹.

B4: anti-FAP aVH P054.035 (VHH)
VHH: EVQLVESGGGLVQPGGSLRLSCAASGFNIKDTCIGWVRRAPGKEEELVANICGSYGHTRYADSVKGRFTISADTSKNTAYLQMNSLRAEDTAVYYCASSYTVYRSYAYWGQGTTVTVSS
On to B4, for which the koff in experiment [1] worked out at 0.0151 s⁻¹; in experiment [2], 0.0141 s⁻¹.

B5: anti-FAP aVH P048.019 (VHH)
VHH: EVQLVESGGGLVQPGGSLRLSCAASGFNIKDTCIGWVRRAPGKEEELVANICPKHGATRYADSVKGRFTISADTSKNTAYLQMNSLRAEDTAVYYCAYSGNVYNRYKYWGQGTTVTVSS
For B5, the figures for the koff in experiment [1] and in experiment [2] were 0.0171 s⁻¹ and 0.00547 s⁻¹, respectively.

B6: anti-FAP aVH P054.064 (VHH)
VHH: EVQLVESGGGLVQPGGSLRLSCAASGFNIKDTCIGWVRRAPGKEEELVANICGSNGYTRYADSVKGRFTISADTSKNTAYLQMNSLRAEDTAVYYCASSYTVYRGYDYWGQGTTVTVSS
With B6, the koff in experiment [1] amounted to 0.0312 s⁻¹; in experiment [2] it was 0.0161 s⁻¹.

B7: anti-FAP aVH P053.020 (VHH)
VHH: EVQLVESGGGLVQPGGSLRLSCAASGFNIKDTCIGWVRRAPGKEEELVARICGQIGSTRYADSVKGRFTISADTSKNTAYLQMNSLRAEDTAVYYCATSYTVYRSYDYWGQGTTVTVSS
In the case of B7, the values for the koff in experiment [1] and in experiment [2] were 0.0294 s⁻¹ and 0.0125 s⁻¹, respectively.

B8: anti-FAP aVH P032.056 (VHH)
VHH: EVQLVESGGGLVQPGGSLRLSCAASSFNIKDTYIGWVRRAPGKEEELVANIHCRSGYTRYADSVKGRFTISCDTSKNTAYLQMNSLRAEDTAVYYCAHSGSRYIYKYWGQGTTVTVSS
Regarding B8, the koff in experiment [1] was 0.0222 s⁻¹. For the same molecule, in experiment [2], the binding result is “no binding”.

B9: anti-MCSP aVH clone 2 (VHH)
VHH: EVQLVESGGGLVQPGGSLRLSCAASSFNIKDTYIGWVRRAPGKGTELVASIDCIYGYTRYADSVKGRFTISCDTSKNTAYLQMNSLRAEDTAVYYCAAQGYRLHYWGQGTTVTVSS
In experiment [3], B9 showed a Kd of 8 nM, an off-rate constant (koff) of 0.00339 s⁻¹ and a kon of 458000 M⁻¹ s⁻¹.

B10: anti-CEA aVH P112.083 (VHH)
VHH: EVQLVESGGGLVQPGGSLRLSCAASGFNIKDTCIGWVRRAPGKEEELVADICPYKGSTRYADSVKGRFTISADTSKNTAYLQMNSLRAEDTAVYYCAIVSARDGYYNYWGQGTTVTVSS
Consider B10, for which the Kd in experiment [4] was found to be 10.4 nM; in experiment [5], 7.26 nM. Further, in experiment [6], the koff was determined as 0.00034 s⁻¹.

B11: anti-CEA aVH P124.037 (VHH)
VHH: EVQLVESGGGLVQPGGSLRLSCAASGFNIKDTCIGWVRRAPGKEEELVAQICQYHGSTRYADSVKGRFTISADTSKNTAYLQMNSLRAEDTAVYYCAIVGQNYPVYNYWGQGTTVTVSS
With B11, the Kd in experiment [4] was 11.1 nM; in experiment [5], 15.2 nM. In addition, the koff in experiment [6] is 0.0395 s⁻¹.

B12: anti-CEA aVH P118.093 (VHH)
VHH: EVQLVESGGGLVQPGGSLRLSCAASGFNIKDTCIGWVRRAPGKEEELVADICPSYGGTRYADSVKGRFTISADTSKNTAYLQMNSLRAEDTAVYYCAIVSKIDQYYNYWGQGTTVTVSS
On to B12, for which the results for the dissociation constant Kd in experiment [4] and in experiment [5] were 47.3 nM and 102 nM, respectively. Further, in experiment [6], the koff came to 0.033 s⁻¹.

B13: anti-CEA aVH P118.008 (VHH)
VHH: EVQLVESGGGLVQPGGSLRLSCAASGFNIKDTCIGWVRRAPGKEEELVAYICNYTGYTRYADSVKGRFTISADTSKNTAYLQMNSLRAEDTAVYYCAITSYHGQGYNYWGQGTTVTVSS
In the case of B13, the Kd in experiment [4] stood at 28.6 nM; in experiment [5], 96.2 nM. This molecule yielded a koff in experiment [6] of 0.0305 s⁻¹.

B14: anti-CEA aVH P127.141 (VHH)
VHH: EVQLVESGGGLVQPGGSLRLSCAASGFNIKDTCIGWVRRAPGKEEELVAGICEYTGSTRYADSVKGRFTISADTSKNTAYLQMNSLRAEDTAVYYCAIVSQSRSVYNYWGQGTTVTVSS
For the molecule B14, the Kd in experiment [4] was 28.3 nM; in experiment [5] it was 135 nM. This molecule returned a koff in experiment [6] of 0.0317 s⁻¹.

B15: anti-CEA aVH P112.068 (VHH)
VHH: EVQLVESGGGLVQPGGSLRLSCAASGFNIKDTCIGWVRRAPGKEEELVAKICKYSGHTRYADSVKGRFTISADTSKNTAYLQMNSLRAEDTAVYYCAAVSVRDGHYNYWGQGTTVTVSS
For B15, the values for the Kd in experiment [4] and in experiment [5] were 14.6 nM and 16.2 nM, respectively. The same molecule had a koff in experiment [6] of 0.0016 s⁻¹.

B16: anti-CEA aVH P124.067 (VHH)
VHH: EVQLVESGGGLVQPGGSLRLSCAASGFNIKDTCIGWVRRAPGKEEELVAAICEYKGYTRYADSVKGRFTISADTSKNTAYLQMNSLRAEDTAVYYCAIASPVDQYYNYWGQGTTVTVSS
On to B16, for which the Kd in experiment [4] stood at 74.3 nM; in experiment [5], 296 nM. For the same molecule, the koff in experiment [6] was found to be 0.00704 s⁻¹.

B17: anti-MCSP aVH clone 57.1 (VHH)
VHH: EVQLVESGGGLVQPGGSLRLSCAASGFNIKQNCIEWVRRAPGKGTELVANICHDIGSTRYADSVKGRFTISADTSKNTAYLQMNSLRAEDTAVYYCAAWEQKGFNYWGQGTTVTVSS
For B17, in experiment [3], the affinity, expressed as Kd, was 48 nM; the koff turned out to be 0.0142 s⁻¹; the kon came to 295000 M⁻¹ s⁻¹.

B18: anti-MCSP aVH clone 44 (VHH)
VHH: EVQLVESGGGLVQPGGSLRLSCAASGFNIKDGYIDWVRRAPGKGTELVASIECTNGRATRYADSVKGRFTISCDTSKNTAYLQMNSLRAEDTAVYYCAYAGIGYYFYYWGQGTTVTVSS
For the molecule B18, in experiment [3], the affinity, expressed as Kd, was 109 nM; the koff was 0.0163 s⁻¹; the kon came to 150000 M⁻¹ s⁻¹.

Broadly, the koff is the rate constant with which the complex falls apart. A higher koff goes with fast dissociation. As usually defined, the Kd is the free concentration of one partner at which half of the binding sites on the other are occupied at equilibrium, for simple one-to-one binding. Low values mean tighter binding, high ones weaker binding. As usually defined, the kon is the second-order rate constant of association. A low value points to slow association.

These data come from patent US20260070940A1 (Hoffmann-La Roche, published 2026).
